Test results published in patent US20240141072A1 (published 2024).

Experiments:
Test in all cases: Octet BLI; biotinylated huDLL3-IgG1 fusion on streptavidin tips; single 50 nM trispecific, conditioned medium
[1] = target: T1, anti-DLL3 trispecific protein with DLL3 binding domain 42A06
T1 construct: trispecific, one chain
Experimental: (§1) Using the conditioned medium with known concentrations of the anti-DLL3 trispecific proteins, the relative binding affinities of the anti-DLL3 trispecific proteins toward human DLL3 protein were measured using a method where biotinylated version of human DLL3 protein were expressed as a human IgG1 fusion protein, and the binding affinity measurement was carried out in an Octet instrument with streptavidin tips.

[2] = target: T2, anti-DLL3 trispecific protein with DLL3 binding domain 42G05
T2 construct: trispecific, one chain
Experimental: as §1

[3] = target: T3, anti-DLL3 trispecific protein with DLL3 binding domain 51A02
T3 construct: trispecific, one chain
Experimental: as §1

[4] = target: T4, anti-DLL3 trispecific protein with DLL3 binding domain 53B06
T4 construct: trispecific, one chain
Experimental: as §1

[5] = target: T5, anti-DLL3 trispecific protein with DLL3 binding domain 42C08
T5 construct: trispecific, one chain
Experimental: as §1

[6] = target: T6, anti-DLL3 trispecific protein with DLL3 binding domain 51E02
T6 construct: trispecific, one chain
Experimental: as §1

[7] = target: T7, anti-DLL3 trispecific protein with DLL3 binding domain 42H05
T7 construct: trispecific, one chain
Experimental: as §1

[8] = target: T8, anti-DLL3 trispecific protein with DLL3 binding domain 52C04
T8 construct: trispecific, one chain; also called 52C4
Experimental: as §1

[9] = target: T9, anti-DLL3 trispecific protein with DLL3 binding domain 42E07
T9 construct: trispecific, one chain
Experimental: as §1

[10] = target: T10, anti-DLL3 trispecific protein with DLL3 binding domain 51B11
T10 construct: trispecific, one chain
Experimental: as §1

[11] = target: T11, anti-DLL3 trispecific protein with DLL3 binding domain 42G07
T11 construct: trispecific, one chain
Experimental: as §1

[12] = target: T12, anti-DLL3 trispecific protein with DLL3 binding domain 41F07
T12 construct: trispecific, one chain
Experimental: as §1

[13] = target: T13, anti-DLL3 trispecific protein with DLL3 binding domain 41B11
T13 construct: trispecific, one chain
Experimental: as §1

[14] = target: T14, anti-DLL3 trispecific protein with DLL3 binding domain 53A05
T14 construct: trispecific, one chain
Experimental: as §1

[15] = target: T15, anti-DLL3 trispecific protein with DLL3 binding domain 42E06
T15 construct: trispecific, one chain
Experimental: as §1

[16] = target: T16, anti-DLL3 trispecific protein with DLL3 binding domain 51B04
T16 construct: trispecific, one chain
Experimental: as §1

[17] = target: T17, anti-DLL3 trispecific protein with DLL3 binding domain 42D07
T17 construct: trispecific, one chain
Experimental: as §1

T3 sequence (chain, as listed by the source): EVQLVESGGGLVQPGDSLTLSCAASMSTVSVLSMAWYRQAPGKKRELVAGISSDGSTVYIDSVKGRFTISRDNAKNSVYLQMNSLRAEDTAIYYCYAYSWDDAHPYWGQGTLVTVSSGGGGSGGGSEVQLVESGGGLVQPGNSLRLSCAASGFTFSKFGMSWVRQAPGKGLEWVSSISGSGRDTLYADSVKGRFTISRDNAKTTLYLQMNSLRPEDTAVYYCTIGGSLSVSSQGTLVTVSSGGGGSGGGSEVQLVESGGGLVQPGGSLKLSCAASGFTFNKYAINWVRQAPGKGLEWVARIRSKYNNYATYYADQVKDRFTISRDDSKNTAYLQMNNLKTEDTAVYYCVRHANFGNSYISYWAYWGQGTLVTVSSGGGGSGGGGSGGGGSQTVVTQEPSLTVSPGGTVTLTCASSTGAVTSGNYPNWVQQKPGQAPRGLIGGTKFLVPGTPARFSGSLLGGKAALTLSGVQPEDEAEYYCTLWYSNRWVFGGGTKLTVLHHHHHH
T1 sequence (chain, as listed by the source): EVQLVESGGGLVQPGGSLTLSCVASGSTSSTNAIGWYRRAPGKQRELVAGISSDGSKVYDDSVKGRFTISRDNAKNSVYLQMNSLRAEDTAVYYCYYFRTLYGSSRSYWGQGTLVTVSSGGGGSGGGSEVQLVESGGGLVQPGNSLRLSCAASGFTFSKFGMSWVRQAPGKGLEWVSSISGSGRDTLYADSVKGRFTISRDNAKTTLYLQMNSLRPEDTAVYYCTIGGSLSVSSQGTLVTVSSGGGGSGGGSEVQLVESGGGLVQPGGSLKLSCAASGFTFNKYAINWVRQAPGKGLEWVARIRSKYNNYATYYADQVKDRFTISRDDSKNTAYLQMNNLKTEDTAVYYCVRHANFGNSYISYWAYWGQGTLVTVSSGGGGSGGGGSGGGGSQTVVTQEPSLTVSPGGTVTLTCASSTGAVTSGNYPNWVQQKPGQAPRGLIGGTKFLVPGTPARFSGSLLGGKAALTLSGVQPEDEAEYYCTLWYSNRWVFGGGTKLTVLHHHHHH
T13 sequence (chain, as listed by the source): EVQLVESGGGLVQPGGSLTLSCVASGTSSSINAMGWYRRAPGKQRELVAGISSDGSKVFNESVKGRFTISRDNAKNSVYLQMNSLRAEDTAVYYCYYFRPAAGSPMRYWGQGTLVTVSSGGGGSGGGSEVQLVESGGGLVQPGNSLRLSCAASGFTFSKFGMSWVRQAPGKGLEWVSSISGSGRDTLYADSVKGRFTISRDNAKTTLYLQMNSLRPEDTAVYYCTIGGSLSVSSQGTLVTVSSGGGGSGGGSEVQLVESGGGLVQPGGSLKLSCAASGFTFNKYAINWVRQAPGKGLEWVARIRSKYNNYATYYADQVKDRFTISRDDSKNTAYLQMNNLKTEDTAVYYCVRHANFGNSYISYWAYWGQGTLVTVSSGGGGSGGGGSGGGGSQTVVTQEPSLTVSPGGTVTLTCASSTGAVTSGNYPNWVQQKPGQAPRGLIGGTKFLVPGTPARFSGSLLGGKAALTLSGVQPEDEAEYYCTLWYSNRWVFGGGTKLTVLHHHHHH
T17 sequence (chain, as listed by the source): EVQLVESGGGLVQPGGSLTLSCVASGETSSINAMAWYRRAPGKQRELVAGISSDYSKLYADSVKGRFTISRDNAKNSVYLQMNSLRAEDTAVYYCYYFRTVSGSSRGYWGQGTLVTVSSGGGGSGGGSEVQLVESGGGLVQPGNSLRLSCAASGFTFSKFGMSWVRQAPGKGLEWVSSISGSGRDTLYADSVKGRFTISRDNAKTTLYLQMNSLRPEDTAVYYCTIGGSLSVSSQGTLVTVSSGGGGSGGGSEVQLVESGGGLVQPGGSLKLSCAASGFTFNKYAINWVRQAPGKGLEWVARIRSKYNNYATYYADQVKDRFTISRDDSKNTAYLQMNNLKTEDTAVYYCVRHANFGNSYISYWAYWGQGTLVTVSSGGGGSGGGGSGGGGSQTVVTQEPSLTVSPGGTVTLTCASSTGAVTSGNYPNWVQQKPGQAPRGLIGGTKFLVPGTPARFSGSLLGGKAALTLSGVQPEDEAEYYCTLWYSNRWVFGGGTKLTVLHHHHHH
T8 sequence (chain, as listed by the source): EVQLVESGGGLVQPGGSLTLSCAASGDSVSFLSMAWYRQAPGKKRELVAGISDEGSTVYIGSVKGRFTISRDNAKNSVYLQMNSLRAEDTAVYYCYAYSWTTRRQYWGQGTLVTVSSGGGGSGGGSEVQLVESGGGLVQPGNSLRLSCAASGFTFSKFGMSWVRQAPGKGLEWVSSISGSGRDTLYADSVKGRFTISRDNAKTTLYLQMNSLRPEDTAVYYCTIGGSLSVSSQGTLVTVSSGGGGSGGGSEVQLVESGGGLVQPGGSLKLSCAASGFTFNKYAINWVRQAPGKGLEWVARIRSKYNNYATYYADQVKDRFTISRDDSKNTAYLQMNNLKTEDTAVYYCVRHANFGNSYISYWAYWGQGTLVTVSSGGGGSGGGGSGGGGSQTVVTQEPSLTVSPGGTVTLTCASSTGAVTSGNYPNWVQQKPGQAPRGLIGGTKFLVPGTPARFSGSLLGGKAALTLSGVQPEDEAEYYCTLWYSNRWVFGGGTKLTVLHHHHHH
T11 sequence (chain, as listed by the source): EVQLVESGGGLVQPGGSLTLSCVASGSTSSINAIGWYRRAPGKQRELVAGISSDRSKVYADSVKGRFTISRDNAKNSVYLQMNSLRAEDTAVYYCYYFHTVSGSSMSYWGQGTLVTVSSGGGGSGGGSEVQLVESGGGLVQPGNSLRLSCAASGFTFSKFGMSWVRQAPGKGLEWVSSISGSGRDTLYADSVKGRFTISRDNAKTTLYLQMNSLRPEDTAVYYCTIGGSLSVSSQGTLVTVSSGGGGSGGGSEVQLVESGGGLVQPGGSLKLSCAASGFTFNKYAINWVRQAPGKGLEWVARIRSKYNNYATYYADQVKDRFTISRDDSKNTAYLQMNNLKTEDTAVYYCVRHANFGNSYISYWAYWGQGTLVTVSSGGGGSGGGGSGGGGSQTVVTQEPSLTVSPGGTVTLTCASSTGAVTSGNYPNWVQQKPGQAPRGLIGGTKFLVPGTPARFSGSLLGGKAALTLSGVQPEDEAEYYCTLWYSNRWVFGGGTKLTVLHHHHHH
T14 sequence (chain, as listed by the source): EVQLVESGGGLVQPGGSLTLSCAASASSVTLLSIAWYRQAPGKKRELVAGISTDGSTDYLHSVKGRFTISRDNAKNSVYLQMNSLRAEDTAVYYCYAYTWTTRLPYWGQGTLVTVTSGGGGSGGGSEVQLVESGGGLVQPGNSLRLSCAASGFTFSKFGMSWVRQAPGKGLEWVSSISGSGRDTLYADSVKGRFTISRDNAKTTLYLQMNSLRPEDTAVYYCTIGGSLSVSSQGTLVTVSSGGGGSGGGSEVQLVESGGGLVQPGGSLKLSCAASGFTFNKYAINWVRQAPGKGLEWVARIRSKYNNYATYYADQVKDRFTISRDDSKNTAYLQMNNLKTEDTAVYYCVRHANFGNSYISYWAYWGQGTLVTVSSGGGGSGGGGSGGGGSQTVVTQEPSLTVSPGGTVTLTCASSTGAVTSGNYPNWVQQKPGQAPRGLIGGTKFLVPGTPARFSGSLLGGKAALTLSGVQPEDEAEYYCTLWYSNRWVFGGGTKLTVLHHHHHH
T4 sequence (chain, as listed by the source): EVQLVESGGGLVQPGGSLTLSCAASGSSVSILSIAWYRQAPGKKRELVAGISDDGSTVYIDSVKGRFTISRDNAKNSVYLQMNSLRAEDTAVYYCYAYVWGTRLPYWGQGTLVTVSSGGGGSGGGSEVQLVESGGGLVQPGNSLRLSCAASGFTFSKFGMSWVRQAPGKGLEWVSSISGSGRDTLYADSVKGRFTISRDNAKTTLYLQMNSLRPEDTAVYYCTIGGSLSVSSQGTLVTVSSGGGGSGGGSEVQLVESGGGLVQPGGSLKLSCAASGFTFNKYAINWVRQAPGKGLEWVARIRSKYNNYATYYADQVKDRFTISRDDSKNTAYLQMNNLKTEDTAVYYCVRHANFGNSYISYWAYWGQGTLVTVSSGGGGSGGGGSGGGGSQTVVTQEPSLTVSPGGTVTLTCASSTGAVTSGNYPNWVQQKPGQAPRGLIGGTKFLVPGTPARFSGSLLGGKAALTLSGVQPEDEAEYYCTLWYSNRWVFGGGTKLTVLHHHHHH
T9 sequence (chain, as listed by the source): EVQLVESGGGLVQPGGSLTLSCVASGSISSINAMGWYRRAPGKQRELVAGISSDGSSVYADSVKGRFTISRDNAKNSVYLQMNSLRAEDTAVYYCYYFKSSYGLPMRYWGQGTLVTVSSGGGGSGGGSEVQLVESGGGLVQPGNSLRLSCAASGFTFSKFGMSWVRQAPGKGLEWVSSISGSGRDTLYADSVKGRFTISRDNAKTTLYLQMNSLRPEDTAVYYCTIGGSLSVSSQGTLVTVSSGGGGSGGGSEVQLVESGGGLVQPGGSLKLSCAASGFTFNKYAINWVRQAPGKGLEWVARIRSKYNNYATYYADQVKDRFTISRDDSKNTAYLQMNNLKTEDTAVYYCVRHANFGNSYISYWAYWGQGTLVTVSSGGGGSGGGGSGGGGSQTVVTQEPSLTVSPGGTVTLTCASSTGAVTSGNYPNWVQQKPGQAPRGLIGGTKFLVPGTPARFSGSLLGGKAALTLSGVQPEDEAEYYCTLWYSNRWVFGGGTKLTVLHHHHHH

B1: biotinylated human DLL3 protein expressed as a human IgG1 fusion protein (Fc fusion, not shown: a dimerising Fc or GST)
chain: AGVFELQIHSFGPGPGPGAPRSPCSARLPCRLFFRVCLKPGLSEEAAESPCALGAALSARGPVYTEQPGAPAPDLPLPDGLLQVPFRDAWPGTFSFIIETWREELGDQIGGPAWSLLARVAGRRRLAAGGPWARDIQRAGAWELRFSYRARCEPPAVGTACTRLCRPRSAPSRCGPGLRPCAPLEDECEAPLVCRAGCSPEHGFCEQPGECRCLEGWTGPLCTVPVSTSSCLSPRGPSSATTGCLVPGPGPCDGNPCANGGSCSETPRSFECTCPRGFYGLRCEVSGVTCADGPCFNGGLCVGGADPDSAYICHCPPGFQGSNCEKRVDRCSLQPCRNGGLCLDLGHALRCRCRAGFAGPRCEHDLDDCAGRACANGGTCVEGGGAHRCSCALGFGGRDCRERADPCAARPCAHGGRCYAHFSGLVCACAPGYMGARCEFPVHPDGASALPAAPPGLRPGDPQRYL
modifications: biotinylated
Kd [1]: 1 nM
Kd [2]: 3.4 nM
Kd [3]: 1.2 nM
Kd [4]: 0.71 nM
Kd [5]: 1.8 nM
Kd [6]: 3.5 nM
Kd [7]: 2.7 nM
Kd [8]: 0.82 nM
Kd [9]: 3.9 nM
Kd [10]: 2.4 nM
Kd [11]: 1.3 nM
Kd [12]: 25 nM
Kd [13]: 9.9 nM
Kd [14]: 0.31 nM
Kd [15]: 3.8 nM
Kd [16]: 16 nM
Kd [17]: 5.3 nM
